One series concerns the target T1, FinO45-186 (Escherichia coli (F plasmid)?, UniProt P29367 45-186).
T1 sequence: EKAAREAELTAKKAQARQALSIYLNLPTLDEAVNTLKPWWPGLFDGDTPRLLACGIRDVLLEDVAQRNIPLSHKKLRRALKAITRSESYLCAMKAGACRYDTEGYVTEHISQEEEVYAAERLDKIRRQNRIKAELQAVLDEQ
Kind of series: FP; […]; ITC: 25 mM HEPES pH 7.3, 150 mM NaCl, 10% glycerol, 1 mM TCEP, 25 C. Conditions: protein: recombinant; tags: GST removed by 3C protease; label: 5' FAM; hairpin, 5-nt 3' tail.

The next series addresses RocC24-126 (Legionella pneumophila Paris, UniProt A0A3A6VMJ3 24-126). The description is as above. Particulars: protein: recombinant; tags: GST removed by 3C protease; label: 5' FAM; hairpin, 5-nt 3' tail.
Series [1] addresses T2, RocC14-126 (Legionella pneumophila Paris, UniProt A0A3A6VMJ3 14-126). The series is described as follows: ITC; little if any binding; […]; ITC: 25 mM HEPES pH 7.3, 150 mM NaCl, 10% glycerol, 1 mM TCEP, 25 C. Conditions: protein: recombinant; tags: GST removed by 3C protease; hairpin, 5-nt 3' tail. For orientation: ITC needs no label: the signal is the heat of the interaction.

Series [2] deals with T2, RocC14-126. Kind of series: ITC; 1:1; […]; ITC: 25 mM HEPES pH 7.3, 150 mM NaCl, 10% glycerol, 1 mM TCEP, 25 C. Conditions: protein: recombinant; tags: GST removed by 3C protease.
The target of series [3] is T2, RocC14-126. The series is described as follows: EMSA; similar to 1-126; […]; ITC: 25 mM HEPES pH 7.3, 150 mM NaCl, 10% glycerol, 1 mM TCEP, 25 C. Conditions: protein: recombinant; tags: GST removed by 3C protease; label: 5' 32P; hairpin, 5-nt 3' tail.
The target of a further series is RocC1-126 (Legionella pneumophila Paris, UniProt A0A3A6VMJ3 1-126). The series is described as follows: EMSA; […]; ITC: 25 mM HEPES pH 7.3, 150 mM NaCl, 10% glycerol, 1 mM TCEP, 25 C. Conditions: protein: recombinant; tags: GST removed by 3C protease; label: 5' 32P; hairpin, 5-nt 3' tail.

B1: FAM-RocRSL3 (5-nt tail) (structured_RNA)
RNA: UGGGUCAAUUGGCGACACACUGAUUGGCCCUUUCU
Regarding B1, in the series with FinO45-186, the binding result is “binds”. In the series with RocC24-126, the binding signal was ~3 fold weaker than RocC1-126.

B2: RocRP (RocRSL3 3'-phosphate) (structured_RNA)
RNA: UGGGUCAAUUGGCGACACACUGAUUGGCCCUUUCU
modifications: 3'-phosphate
On to B2, for which, in the series with RocC14-126 [1], the binding result is “no binding”.

B3: 10-nt single-stranded RNA (ssRNA)
RNA: GGCCCUUUCU
As for B3, the binding signal in the series with RocC14-126 [2] is ~19 fold weaker than RocR9bp-tet.

B4: RocRSL3 (IVT) (structured_RNA)
RNA: GGGUGGGUCAAUUGGCGACACACUGAUUGGCCCUUUCU
As to B4, the binding result in the series with RocC14-126 [3] and with RocC1-126 was “binds” in each case.

Source of the values: PMC9674577.
